{
  "source": "paper PMC8120272",
  "about": "“Heterologous Expression and Biochemical Characterization of the Human Zinc Transporter 1 (ZnT1) and Its Soluble C-Terminal Domain” (Frontiers in Chemistry, 2021)",
  "target": "the molecule itself",
  "experiment": "SEC-SAXS (small-angle X-ray scattering); in-line SEC-SAXS with sheath flow, SAXS-WAXS beamline of the Australian Synchrotron; molecular mass estimated from the Porod volume; conditions in Supplementary Table 3",
  "data": [
    {"protein": "soluble C-terminal domain of human zinc transporter 1 (hZnT1-CTD) (domain or fragment, UniProt Q9Y6M5 342-507, looked up, human zinc transporter 1 (ZnT1, SLC30A1), soluble C-terminal domain, residues 342-507; Cloned into pET24a with a C-terminal His8-tag; no removal of the tag is described) ILLQTVPKQIDIRNLIKELRNVEGVEEVHELHVWQLAGSRIIATAHIKCEDPTSYMEVAKTIKDVFHNHGIHATTIQPEFASVGSKSSVVPCELACRTQCALKQCCGTLPQAPSGKDAEKTPAVSISCLELSNNLEKKPRRTKAENIPAVVIEIKNMPNKQPESSL", "values": [
      {"measurement": "stoichiometry N", "value": 2}
    ]}
  ]
}
